# Changes are numbered by the printed parent chain. No end group written: not given here.
# B1: hFN10/B (designed binder)
# chain: SDVPRDLEVVAATPTSLLISWDAPAVTVRYYRITYGETGGNSPVQEFTVPGSKSTATISGLKPGVDYTITVYAVIARGDWNDGSKPISINY
# notes: hFN10 with the three residues flanking RGDWN changed to match barbourin; His tag as for hFN10
# B2: WT knottin 2.5F-Fc fusion protein (rEETI 2.5F) (Fc fusion)
# chain: GCPRPRGDNPPLTCSQDSDCLAGCVCGPNGFCG
# modifications: ends and bridges not checked; also: C-terminal His tag on knottin, fused at C-terminus to human IgG Fc, Fc fusion dimer
# notes: The order of His tag and Fc is read from 'c-terminal his-tagged ... fused at the c-terminus to the Fc fragment'; also called WT 2.5F; WT rEETI 2.5F; not shown: C-terminal His tag of the knottin; Fc fragment of human IgG
# B3: modified knottin 2.5F M, Fc fusion (Fc fusion)
# chain: B2 chain with N9W, P10N, P11E, L12G
# modifications: ends and bridges not checked; also: C-terminal His tag, number of His and linker not given here, fused at C-terminus to Fc fragment of human IgG
# notes: Made by site-directed mutagenesis of the WT rEETI 2.5F construct; tested as culture supernatant; not shown: C-terminal His tag of the knottin; Fc fragment of human IgG
# B4: modified knottin 2.5F M1, Fc fusion (Fc fusion)
# chain: B2 chain with N9W, P10N
# modifications: ends and bridges not checked; also: C-terminal His tag, number of His and linker not given here, fused at C-terminus to Fc fragment of human IgG
# notes: as for B3
# B5: wild-type integrin αVβ3 on cells (K562-αVβ3, M21, HEK293T) (receptor)
# chain 1: FNLDVDSPAEYSGPEGSYFGFAVDFFVPSASSRMFLLVGAPKANTTQPGIVEGGQVLKCDWSSTRRCQPIEFDATGNRDYAKDDPLEFKSHQWFGASVRSKQDKILACAPLYHWRTEMKQEREPVGTCFLQDGTKTVEYAPCRSQDIDADGQGFCQGGFSIDFTKADRVLLGGPGSFYWQGQLISDQVAEIVSKYDPNVYSIKYNNQLATRTAQAIFDDSYLGYSVAVGDFNGDGIDDFVSGVPRAARTLGMVYIYDGKNMSSLYNFTGEQMAAYFGFSVAATDINGDDYADVFIGAPLFMDRGSDGKLQEVGQVSVSLQRASGDFQTTKLNGFEVFARFGSAIAPLGDLDQDGFNDIAIAAPYGGEDKKGIVYIFNGRSTGLNAVPSQILEGQWAARSMPPSFGYSMKGATDIDKNGYPDLIVGAFGVDRAILYRARPVITVNAGLEVYPSILNQDNKTCSLPGTALKVSCFNVRFCLKADGKGVLPRKLNFQVELLLDKLKQKGAIRRALFLYSRSPSHSKNMTISRGGLMQCEELIAYLRDESEFRDKLTPITIFMEYRLDYRTAADTTGLQPILNQFTPANISRQAHILLDCGEDNVCKPKLEVSVDSDQKKIYIGDDNPLTLIVKAQNQGEGAYEAELIVSIPLQADFIGVVRNNEALARLSCAFKTENQTRQVVCDLGNPMKAGTQLLAGLRFSVHQQSEMDTSVKFDLQIQSSNLFDKVSPVVSHKVDLAVLAAVEIRGVSSPDHIFLPIPNWEHKENPETEEDVGPVVQHIYELRNNGPSSFSKAMLHLQWPYKYNNNTLLYILHYDIDGPMNCTSDMEINPLRIKISSLQTTEKNDTVAGQGERDHLITKRDLALSEGDIHTLGCGVAQCLKIVCQVGRLDRGKSAILYVKSLLWTETFMNKENQNHSYSLKSSASFNVIEFPYKNLPIEDITNSTLVTTNVTWGIQPAPMPVPVWVIILAVLAGLLLLAVLVFVMYRMGFFKRVRPPQEEQEREQLQPHENGEGNSET
# chain 2: GPNICTTRGVSSCQQCLAVSPMCAWCSDEALPLGSPRCDLKENLLKDNCAPESIEFPVSEARVLEDRPLSDKGSGDSSQVTQVSPQRIALRLRPDDSKNFSIQVRQVEDYPVDIYYLMDLSYSMKDDLWSIQNLGTKLATQMRKLTSNLRIGFGAFVDKPVSPYMYISPPEALENPCYDMKTTCLPMFGYKHVLTLTDQVTRFNEEVKKQSVSRNRDAPEGGFDAIMQATVCDEKIGWRNDASHLLVFTTDAKTHIALDGRLAGIVQPNDGQCHVGSDNHYSASTTMDYPSLGLMTEKLSQKNINLIFAVTENVVNLYQNYSELIPGTTVGVLSMDSSNVLQLIVDAYGKIRSKVELEVRDLPEELSLSFNATCLNNEVIPGLKSCMGLKIGDTVSFSIEAKVRGCPQEKEKSFTIKPVGFKDSLIVQVTFDCDCACQAQAEPNSHRCNNGNGTFECGVCRCGPGWLGSQCECSEEDYRPSQQDECSPREGQPVCSQRGECLCGQCVCHSSDFGKITGKYCECDDFSCVRYKGEMCSGHGQCSCGDCLCDSDWTGYYCNCTTRTDTCMSSNGLLCSGRGKCECGSCVCIQPGSYGDTCEKCPTCPDACTFKKECVECKKFDREPYMTENTCNRYCRDEIESVKELKDTGKDAVNCTYKNEDDCVVRFQYYEDSSGKSILYVVEEPECPKGPDILVVLLSVMGAILLIGLAALLIWKLLITIHDRKEFAKFEEERARAKWDTANNPLYKEATSTFTNITYRGT
# notes: also called WT αVβ3; cellular αVβ3
# Key:
# [1] = biological target: B5; test: M21 cells, unlabeled FN10, AP5 read-out by flow cytometry
# Procedure: (§1) K562-αVβ3 cells, transiently transfected HEK293T or αVβ3⁺ M21 cells (0.5×10⁶ in 100 μl WB) were incubated in the absence or presence of unlabeled soluble FN10 (5 μg) in Ca²⁺/Mg²⁺ or in Mn²⁺ (30 min; at 25° C.). Alexa647-labeled AP5 Fab (plus Alexa488-labeled AP3, when HEK293T cells were used), unlabeled anti-LIBS-1 (all to 10 μg/ml) or LIBS-6 ascites (to 1:50 dilution) were added, and the cells incubated for an additional 30 min before washing. APC-labeled goat anti-mouse Fc-specific antibody was added to anti-LIBS-1- or anti-LIBS-6-bound M21 cells, cells were incubated for an additional 30 min at 4° C. then washed, resuspended, fixed in 4% paraformaldehyde and analyzed by flow cytometry. LIBS epitope expression was measured and expressed as MFI (in case of K562-αVβ3 or M21 cells) and normalized (in case of HEK293T cells) by dividing its MFI by the MFI for Alexa488-labeled AP3, and multiplied by 100.
# [2] = biological target: B5; test: flow cytometry on K562-αVβ3, culture supernatant, fluoresceinated anti-human Fc mAb, Ca2+/Mg2+
# Procedure: (§2) Binding of soluble knottin dimers to αVβ3-K562 cells was expressed as mean fluorescence intensity (MFI), as determined using FlowJo software. […] Alexa647-labeled mAb AP5 Fab (10 μg/ml) was added, and cells incubated for an additional 30 min before washing. APC-labeled goat anti-mouse Fc-specific antibody was added to anti-LIBS-1- or anti-LIBS-6-bound M21 cells for an additional 30 min at 4° C. Cells were then washed, resuspended, fixed in 4% paraformaldehyde and analyzed by flow cytometry. AP5 epitope expression was measured and expressed as MFI.
# as §2, with “Cells were washed, resuspended, fixed in 4% paraformaldehyde, and analyzed using FACSCalibur or BD-LSRII flow cytometers (BD Biosciences). Binding” for “Binding”, “Fe-specific” for “Fc-specific”
# [3] = biological target: T1, wild-type 10th type-III RGD-domain of human fibronectin (wtFN10) (human, UniProt P02751 1539-1631); test: M21 cells, unlabeled FN10, AP5 read-out by flow cytometry
# T1 construct: Expressed in bacteria with an N-terminal His tag (S1417-T1509) and a thrombin cleavage site; also called wild-type FN10
# Procedure: as §1
Binder,binding result [2],further results
B1,,binding result [1]: binds
B2,binds,
B3,binds,
B4,binds,
B5,,binding result [3]: binds
